Test results reported in patent publication US20240409645A1 (published 2024).

T1: human IL-2 receptor IL-2Rα/IL-2Rβ/γc on HEK-Blue IL-2 cells (UniProt P01589 22-272; P14784 27-551; P31785 23-369)
T1 chain 1: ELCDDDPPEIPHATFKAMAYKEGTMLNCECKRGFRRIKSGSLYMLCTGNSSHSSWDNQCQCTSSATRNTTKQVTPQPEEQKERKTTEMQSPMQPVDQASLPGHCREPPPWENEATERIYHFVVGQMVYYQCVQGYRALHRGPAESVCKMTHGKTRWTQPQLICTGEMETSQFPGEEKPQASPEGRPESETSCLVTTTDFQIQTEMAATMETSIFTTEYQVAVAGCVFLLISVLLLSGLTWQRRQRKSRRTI
T1 chain 2: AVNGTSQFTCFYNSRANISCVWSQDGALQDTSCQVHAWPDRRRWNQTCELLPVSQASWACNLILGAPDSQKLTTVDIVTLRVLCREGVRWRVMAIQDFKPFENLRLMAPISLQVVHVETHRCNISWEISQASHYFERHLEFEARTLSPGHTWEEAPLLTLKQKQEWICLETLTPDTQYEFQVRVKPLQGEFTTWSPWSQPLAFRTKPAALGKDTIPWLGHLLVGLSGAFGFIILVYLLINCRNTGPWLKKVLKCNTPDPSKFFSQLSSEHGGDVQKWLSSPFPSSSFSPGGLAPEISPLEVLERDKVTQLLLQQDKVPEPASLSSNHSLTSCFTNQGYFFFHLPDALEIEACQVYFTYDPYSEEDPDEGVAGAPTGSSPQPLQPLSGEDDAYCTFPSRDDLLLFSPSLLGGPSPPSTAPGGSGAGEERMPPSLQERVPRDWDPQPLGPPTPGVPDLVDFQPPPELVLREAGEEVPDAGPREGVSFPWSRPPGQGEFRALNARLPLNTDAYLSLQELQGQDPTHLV
T1 chain 3: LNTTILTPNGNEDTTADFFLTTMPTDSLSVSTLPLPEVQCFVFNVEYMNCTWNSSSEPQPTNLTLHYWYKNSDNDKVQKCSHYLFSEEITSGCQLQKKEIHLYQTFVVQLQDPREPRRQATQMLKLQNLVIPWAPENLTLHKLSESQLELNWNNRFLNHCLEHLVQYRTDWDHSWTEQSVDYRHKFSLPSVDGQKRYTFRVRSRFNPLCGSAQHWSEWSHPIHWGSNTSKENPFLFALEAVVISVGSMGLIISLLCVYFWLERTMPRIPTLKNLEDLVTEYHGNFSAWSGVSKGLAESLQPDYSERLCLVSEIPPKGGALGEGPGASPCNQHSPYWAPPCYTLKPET

B1: 3-MP01E03 VHH-hFc, monospecific monovalent (Fc fusion)
VHH: QVQLVESGGGLVQAGGSLRLSCTASGRTLSSYSMAWFRQAADKGREFVTAISSSGVVTHVLDSVKGRFTISRDNAKNTVYLQMNSLQPEDTALYFCAGTASSYSTYEANYNYWGQGTLVTVSS
B2: 12-MP05B12 VHH-hFc, monospecific monovalent (Fc fusion)
VHH: QVQLVESGGGLVQAGGSLRLSCAASGFTFDGYAIGWFRQAPGKEREGVSYITGSDGSTYYADSVKGRFTISSNNAKNTVYLHMNSLKPDDAAVYYCAIDRLGSRGAYVPIWWRSSDMDLWGKGTLVTVSS
B3: 5-MP01F05 VHH-hFc, monospecific monovalent (Fc fusion)
VHH: EVQLVESGGGLVQAGGSLRLSCAASIRAFTTWSMAWFRQAPGKEREYVARINVSGSVTYYADFVKGRFTISRDNAKKTMYLEMNNLKPEDTALYYCAADRTGVGTNDYNYWGQGTQVTVSS
B4: 11-MP05H04 VHH-hFc, monospecific monovalent (Fc fusion)
VHH: QLQLVESGGGLVQAGGSLRLSCAASGLTFEGYAIGWFRQAPGKEREGVSYITGSDGTTYYINSVKGRFTISSDNAKSTVYLQMNTLKPEDTAVYYCAVDRLGSQGRYASAWWRSGDMDLWGKGTQVTVSS
B5: 9-MP05G01 VHH-hFc, monospecific monovalent (Fc fusion)
VHH: EVQLVESGGGLVQAGGSLRLSCAASGGSIYTYNMGWFRQAPGKEREFVAGTLWSGGDSVYADFAKGRFTLSRENAKNTLYLQMNSLKPEDTATYYCAIDPLSLTSDWRVDELSSWGKGTLVTVSS
B6: 10-MP05F03 VHH-hFc, monospecific monovalent (Fc fusion)
VHH: QVQLVESGGGLVQAGGSLRLSCAASGIPFDNYAMGWFRQAPGKEREFVAARDLEGIITRYGDSVKGRFTISRGNAKNTVFLQMNSLKPEDTAVYYCAARDGGVVAGSRSSAQYNYWGQGTQVTVSS
B7: 7-MP01G08 VHH-hFc, monospecific monovalent (Fc fusion)
VHH: EVQLVESGGGLVQAGGSLRLSCAASGRAFSMYNMGWFRQAPGKEREFVAATGWSGANTPYADSVKGRFTISRDNTQNTVYLQMNSLKPEDTATYYCAADSIRLRSDVTRIPLEYDYWGQGTQVTVSS
B8: 6-MP01G05 VHH-hFc, monospecific monovalent (Fc fusion)
VHH: QVQLQESGGGLVQAGGSLRLSCAASGRTFSSYAMGWFRQAPGKEREFVAVISWNVDNTEYTDSVKGRFTISRDNDKNMVYLQMNSLKPEDTAVYYCAADSIPLSSDMSPTATEYGYWGQGTQVTVSS
B9: 1-MP01H01 VHH-hFc, monospecific monovalent (Fc fusion)
VHH: EVQLVESGGGLVQAGGSLRLSCAASGRTFRTHNMGWFRRAPGKEREFVAAISWNVDNTLYADSVKGRFTISRDNGRNMVYLQMNSLKPEDTAVYYCAADNIPLSSDVAATATEYDYWGQGTQVTVSS
B10: 4-MP01F04 VHH-hFc, monospecific monovalent (Fc fusion)
VHH: QVQLVESGGGLVQAGGSLRLSCAASGGTFRTRNMGWFRRAPGKEREFVAAVSWNVDNKLYADSVKGRFTISRDNGRNMVYLQMNSLKPEDTAVYYCAADNIPLSSDMRPTATEYDYWGQGTQVTVSS
B11: 8-MP01C12 VHH-hFc, monospecific monovalent (Fc fusion)
VHH: QVQLVESGGGLVQPGGSLRLSCATSGFTFSNNFMSWVRQAPGKGLEFVSTISYGGESTTYAEAVKGRFTISRDNAKNTLYLQMNNLKPEDTAIYYCAKATSYTSIRGAPRGQGTQVTVSS
B12: 13-MP05E12 (antibody, V domains shown)
VH: QVQLQESGGGLVQAGDSLRLSCAASGFNFGWHAMGWFRQAPGKEREFVATITWTGRDTYYADSVRGRFTISKDNAKDTLFLQMNSLRPDDTGVYYCAKARERATWAYSEDDCDYWGQGTQVTVSS
B13: BsVHH-9 (35x18) (antibody)
chain: QVQLQESGGGLVQGGGSLRLSCAASGGIFSSYAMGWFRQAPGKEREFVAAISRSGRSTNYADSVKGRFTISRDNAKSTVYLQMNSLKPEETAVYYCAAGRYYNSAYDPSPGDFGSWGHGTQVTVSSGGGGSGGGGSGGGGSGSQVQLVESGGGLVQPGGSLRLSCAISGGTLDSYGIGWVRQAPGKQREGVSCMSRSDDRTYYADSVKGRFTISKDSAKNTVYLQMTSLKPEDTAVYYCAAVDAYGCSLVQPTTYDFWGLGTQVTVSSGGGGSGGGGSGGGGSTVSSDKTHTCPPCPAPEAAGGPSVFLFPPKPKDTLMISRTPEVTCVVVDVSHEDPEVKFNWYVDGVEVHNAKTKPREEQYNSTYRVVSVLTVLHQDWLNGKEYKCKVSNKALGAPIEKTISKAKGQPREPQVYTLPPSRDELTKNQVSLTCLVKGFYPSDIAVEWESNGQPENNYKTTPPVLDSDGSFLLYSKLTVDKSRWQQGNVFSCSVMHEALHNHYTQKSLSLSPGK

Biological target: T1, human IL-2 receptor IL-2Rα/IL-2Rβ/γc on …
Test: FACS cell binding; monovalent

| Binder | EC50 |
| --- | --- |
| B1 | 3.3 nM |
| B2 | 8.5 nM |
| B3 | 9.2 nM |
| B4 | 5.9 nM |
| B5 | 2.3 nM |
| B6 | 2 nM |
| B7 | 4.7 nM |
| B8 | 5.6 nM |
| B9 | 135 nM |
| B10 | 2.2 nM |
| B11 | 2.7 nM |
| B12 | 3.2 nM |

Biological target: T1, human IL-2 receptor IL-2Rα/IL-2Rβ/γc on …
Test: FACS cell binding; avid

| Binder | EC50 |
| --- | --- |
| B13 | 1.3 nM |
